Laboratory results reported in patent EP0621339B1 (TAKARA SHUZO CO. LTD., dated 2001).

Target: HA molecule (haemagglutinin) of A/Okuda/57 (H2N2) (influenza A virus, H2N2 subtype, strain A/Okuda/57)
Assay: cell-based or functional assay

monoclonal antibody C179
HI (hemagglutination inhibition titer) (fold dilution of the ascites fluid): < 32
